This assay has as its target ARΔ423-448 (Flag-AR with residues 423 to 448 removed) (human) (UniProt P10275). Description: proximity ligation.

In turn, “Myc-RAP74-CTD (from UniProt P35269 450-517) (domain or fragment)” had a reduction of the interaction against WT AR (PLA) of 40%.

These data come from article PMC5830076.
